Reference: the supplement of paper PMC9170038

System: K4 kissing-loop RNA reporter
Assay: apparent KD of K4 kissing-loop reporter; higher = weaker reporter binding
Settings: Eterna round: R107
Method: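 RNA-MaP round R107: designed RNA switches with theophylline, tryptophan, arginine or FMN aptamers are transcribed on-chip within common flanks. They are titrated with a labelled K4 kissing-loop RNA reporter in RNA-MaP buffer (100 mM Tris pH 7.5, 80 mM KCl, 4 mM MgCl2), without ligand or with the indicated ligand. Median apparent KD per design.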

[1] = input ligand: theophylline 20 uM
[2] = input ligand: tryptophan 2.4 mM
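Note: bound reporter read as fluorescence of individual clusters on recovered sequencing chips by microscopy, with normalized cluster intensities fitted with a binding model.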

Row | Sequence | apparent KD of K4 kissing-loop reporter (input ligand: FMN 200 uM) [nM] | apparent KD of K4 kissing-loop reporter (input ligand: arginine 13.2 mM) [nM] | apparent KD of K4 kissing-loop reporter (input ligand: none) [nM] | apparent KD of K4 kissing-loop reporter [1] [nM] | apparent KD of K4 kissing-loop reporter [2] [nM]
1 | UGACUGGACUGAAGGAGCGAGCGAGACAAAGUCUCGAAAAUUCAGUGAUGUUGAUAUAUAACUCAGGUAGGUCGCAGUCUAGUCU [ArgBS 5 #SwitchBubble #StaticStem] | 447 | 433 | 477 | 464 | 431
2 | UUUAAAUAUAGUGAUGUUAUAUAACAAUGACGAGGACCGGUACGGCCGCCACUCGAGAGAGAUAAUGAUAAAAUACAUAAUUUUC [AstrosSSTrypA#2] | 668 | 746 | 806 | 709 | 474
3 | UUUGGAAGCGGUGUUGAUUAGGGAGCGGAAGGAGCGCCGAGGAGGGCAGGUAGGUCGCCGGAAUGUAGUGAUGUUGCAUAGAGGU [ExArgA.Aa] | 290 | 265 | 214 | 526 | 178
4 | GGCAGUGAUGUUGCCUUCGCAAUGCAUGCAGAGGAUAUUCGUUUGGGAAGAAGGCUGCAGCGUUCUCUCGAGUGAUGUUCGGGUG [Same State FMN A GF 19] | 130 | 168 | 195 | 181 | 177
5 | UGGAGUUGACGAAAAGUCAACUCCUGGGAAGGAGCGGACGAAAGUCCAGGUAGGUCGCCCACUACCAGUGAUGUUGGUACCUAAA | 274 | 320 | 257 | 307 | 206
6 | UGGUUUAACUGAAGGAGCGGCAAUUGAUAAGUAGAUAUAGUGAUGUUAUAUAAGAUAGAGAGCCAGGUAGGUCGCAGAGGUGUUU [ExArgB.Q] | 208 | 204 | 232 | 253 | 189
7 | AAAAUAAACCAGUGAUGUUGGUGUCCAGAUACCAGCGAUAAAAGUCGCCCUUGGCAGCUGUGGACGUACAAAAUAAGUACGUCCU [MatMod 2 - Jieux - Same State - Theophylline A] | 703 | 533 | 872 | 529 | 678
8 | GUAGGAUGAGGAGGAGGAUGAAUUACUGAAGGAGCGCAAAGAAAUGCAGGUAGGUCGCGGUAAAGAAGUAUAGUGAUGUUAUAUC [#08 K4 Arginine A Same State] | 588 | 416 | 463 | 700 | 598
9 | CUCGAGUGAUGUUCGAUUAUUUAUACAGAUACCAGUGAAUUUUAACACCCUUGGCAGCUGGUUGUAUCAUUGUUUUUUACAAAAG [JR_ExcTheophyA_Sub007] | 113 | 167 | 117 | 195 | 100
10 | CAUACGCAUGGAGGAUAUGAGAUUACUCAUGUCAUUUAAUAUUCUCAGUGAUGUUGAGAUUUAGGCUCAGAAGGCCAUGUGUAUG [Ex FMN B 17] | 355 | 514 | 630 | 534 | 525
11 | UGAUAGGACAGAAGGAGCGGGAGUGAUGUUCCCAAAAGGAUAAGGUGUCAAAAGACACCCUCCCAGGUAGGUCGCUGUCCUAUCU | 577 | 311 | 663 | 532 | 544
12 | CCUGCAGCUGUUACCGAGGGAUGCUACGGACGAGGACCGGUACGGCCGCCACUCGCCAGUGAUGUUGGUGAGGGAGGACGUUCCU [Georte] | 100 | 106 | 150 | 172 | 148
13 | UGAUAGGACAGAAGGAGCGGAGCUGGUCAAAGACCAGCAAUACGUUGAAAAGGAGUGAUGUUCCAGGUAGGUCGCUGUCCUAUCU [ArgBX 27 #SwitchBubble #StaticStem] | 93.5 | 103 | 106 | 133 | 85.2
14 | UGGGUGUAGUGAUGUUAUAUAGAGAGUGAUACCAGUUUAGAGAAGAACCCUUGGCAGCAUAGAAGAGUAUCAUUGGAGAAGAAUG [ExTheophyl.As] | 459 | 348 | 422 | 378 | 339
15 | AAAUAGAUCAGUCACCCAGUGAUGUUGGAAGGAGCGUGCGAAAGCACAGGUAGGUCGCCAAAAUAAAAGUGGCUGAUCAAAAUAA [#SwitchBubble 5 #K4Early] | 336 | 300 | 389 | 526 | 226
16 | AAGAGAUAGGGAGGAUAUGCCCUAUUGAGAACCGAGUGAUGUUCGGUAGGACAAAUAGUCCACAGGGUAGAAGGCCCACAUCACA [SS FNM B Tesla 2] | 191 | 213 | 244 | 476 | 267
17 | GGUGAUGAGCACGAUACCAGCCUCGGAGCCAGUGAUGUUGGCCCAGUUUAGAAUAAGACAGGCCCUUGGCAGCGUGACGAUGGCU [Inorusre] | 885 | 980 | 1020 | 687 | 981
18 | CGCCGAUUGUCGGAGUGAUGUUCCCGGGAUACCAGCACGUCGUCAUGCCCUUGGCAGCCCAACAGACCAUUUUAAAGGCUAGCUG [theeternabot_sameState_KL_Theo_A_35] | 330 | 97.8 | 122 | 221 | 158
19 | AGGGACUCUUCGGAGUCCCGGUCAAGGGAUACCAGUGAUGUUGGUCACCCUUGGCAGCCCAGAAACCAAGCCACCAAAGGUGGCA [Omei KL Theo A Exc A v3] | 117 | 97.9 | 97.3 | 103 | 107
20 | UAUUCUGUUCGAAAGAACGGAAUUUCGGAAGGAGCGAGAGAAAUCUCAGGUAGGUCGCCGAAAUUAUUAGAUAGUGAUGUUAUCU [Arginine A K4 4] | 162 | 110 | 135 | 177 | 158
21 | CCAUCGCUGUUCGAUACCAGUCAUUUUUUAUUUUAUUUUUUUUUUGGAGUGAUGUUCCAAGACCCUUGGCAGCGGAUAGUGAUGG [whbob_SS_Theo_B_th80] | 116 | 143 | 114 | 145 | 111
22 | AUGUGGAGCGACGUUUCGGGAUAUCGGGAAGGAGCGCUGAUAACGGCAGGUAGGUCGCCUGGUCCAGUGAUGUUGGGCAUGCAUU [Exclusion Arg A GF 24] | 150 | 135 | 270 | 185 | 155

Row | Sequence | apparent KD of K4 kissing-loop reporter (input ligand: FMN 200 uM) [nM] | apparent KD of K4 kissing-loop reporter (input ligand: arginine 13.2 mM) [nM] | apparent KD of K4 kissing-loop reporter (input ligand: none) [nM] | apparent KD of K4 kissing-loop reporter [1] [nM] | apparent KD of K4 kissing-loop reporter [2] [nM]
23 | CUUCGAUUAACGGAUACCAGUCACUUGGGAGCCACACACAAGUGAGUGAUGUUCACUUGUGACCCUUGGCAGCCGUUAGUCGAAG [#05 K4 Theophylline B Exclusion] | 106 | 85 | 99.4 | 157 | 97.9
24 | AACUCUCAGACACUUGAGUGAUGUUCAGGCCGAGGACCGGUACGGCCGCCACUCGGGUCUGAGAGAGGUUAUCAAAGAUAGCCAA [Omei KL Tryp A SS A v5] | 350 | 194 | 249 | 261 | 273
25 | AUUUUGGUUUAGAGUGAUGUUCCUUGUAUUCGAGGACCGGUACGGCCGCCACUCGAAUAGAAAAGAAAAGAAAUGUUUGAUGUUU [BDazzled - #6 SS Tryptophan A] | 551 | 193 | 537 | 274 | 393
26 | AUGUAUGAAUUAGGAUAUCGUGAGCCAUGCAUAUAUAUGAUAAAUGGAUAUGUCGUAGUGAUGUUACGAGAAGGAGUGUGGAGUA [KL-XFMN-B2] | 69.2 | 73.6 | 74.7 | 90 | 50.6
27 | GAGGAUAGCGGAAGGAGCGAGUAAUGGAGUGAUGUUCCAAUCAAUAAAACACGAUAGAGUGCUCAGGUAGGUCGCCGUGGUGGUU [Exclusion Argiie B GF 13] | 124 | 143 | 165 | 277 | 111
28 | GGGUGUAGUGCGGCCGCCACUGUGAUAGUAGAAGAGUAUAGUGAUGUUAUAUAGGAUUAAUAGAAUAGGACCGGGCAUUAGACUU [#24 K4 Tryptophan B Same State] | 348 | 340 | 368 | 395 | 209
29 | AGUGUUAGGUUAGAUACCAGCCGUCUGUGAGUAACCCACAGACCGCCAGUGAUGUUGGCAGGCCCUUGGCAGCUAACAGGACAGA [Anesarerza] | 211 | 226 | 210 | 152 | 211
30 | UGUGAUGUUGUGAUGUUUAGUGUUGUUGGGCAGGAUAUUGUAGAGGCGAGAAGGGCUUGUGUGAUGUAUGAGUGAUGUUUGUAGU [cffdmullin] | 177 | 89.6 | 127 | 142 | 119
31 | AAUUUAUUAUCUGAUACCAGACUUUUUCUUGUAUAUAAGUCAAGUGAUGUUUGACUUUUAGUCCCUUGGCAGCAGUAUUUUUUAA [JR_Nu_SSTheophyB_Sub027] | 165 | 149 | 168 | 123 | 155
32 | CCAUUCUUUUACGAUACCAGUUUAAUAUAUUUAUUCAAAACCCUUGCCGAGUGAUGUUCGGACCCUUGGCAGCGUUUGCGAGAGG [ttedstkmullin] | 455 | 376 | 465 | 434 | 356
33 | AGUAGUUGGGCGGCCGCCACUGGAACAGCUUUGUCAAAGACAGAGCACUAGAGUGAUGUUCUAGCUAGGACCGGGUCCAACUACA [whbob_SS_Tryp_B_t17] | 460 | 206 | 533 | 503 | 991
34 | AGGAUGUAGUGAUGUUAUAUAAGAAGUAAACGAGGACCGGUACGGCCGCCACUCGAAACGGCUACUAGCGCGUUGCGAGGUGUGC [ExTryptoA.Cf] | 425 | 475 | 808 | 510 | 402
35 | AUGGACUCUUCGGAGUCCGCCUUAAGGGAUACCAGUGAUGUUGGUCACCCUUGGCAGCCUAGAAAGGAAGCCACCAAAGGUGGCA [Omei v1 mod #OpenEnded #Sliding] | 105 | 114 | 128 | 160 | 101
36 | CCAUCGCUAUUCGAUACCAGUCAUUAAAUCUUUGGUUUAAUAAAGGAGUGAUGUUCCCAAGACCCUUGGCAGCGAAUAGUGAUGG [Theophylline B K4 9] | 213 | 183 | 198 | 166 | 207
37 | AAAGAGUCCUGAGCCGAAGAAGAAGGCGGACGAGGACCGGUACGGCCGCCACUCGAAAGGAGUGCGGCUGAGUGAUGUUUGGCCG [Tryptophan A (C-G optomized)] | 342 | 181 | 284 | 281 | 268
38 | GGAGGUUGGUGCGAUACCAGACCAGCAGUGAUGUUGCGCCAAAGUGAGUGAUGUUCACCGGUCCCUUGGCAGCGCAUUCCUUUAG [Same State Theophylline B GF 14] | 964 | 1110 | 1440 | 1120 | 1110
39 | UGACAUUGCUCAGAUACCAGACUUGAGGAUCACCCAAGUGCCAAAACGUACUAAAUAAAAGUCCCUUGGCAGCUGAGCAAUGUCU [TheoBX 13] | 49.2 | 45.9 | 40.6 | 88 | 54.1
40 | CCGCCAUCAUCAGAUACCAGACUGAUGGCGGUAACCGCCAAGCGAGUGAUGUUCGCAUCAGUCCCUUGGCAGCUGAUGAAGACUG [Theo B SS t4] | 255 | 82.4 | 110 | 104 | 154
41 | GCAUCCAUGUGAGGAUAUCGAGACGAGUGAUGUUCGGGCACCAGACAGGGAGACCUGUCAAUGGCUUGAGAAGGCACAUGGAUGC | 231 | 196 | 249 | 199 | 217
42 | GCAGUGAUGUUGCACGAGUAGGCUGGAGUACGAGGACCGGUACGGCCGCCACUCGUACGAUAGUCGCUAAUUUAUGGAAUGGUGA [#08 K4 Tryptophan A Same State] | 458 | 381 | 551 | 286 | 419
43 | ACGAUUUACAGAAGGAGCGUGUAUUUAACUACAAUUAUCAUAGCGAGUGAUGUUCGUUAUACACAGGUAGGUCGCUGUAUAUCGA [JR_ExcArginiB_Sub012] | 364 | 367 | 356 | 451 | 397
